Test results published in paper PMC4700666, “The structure of a prophenoloxidase (PPO) from Anopheles gambiae provides new insights into the mechanism of PPO activation” (BMC Biology, 2016).

Biological target: the molecule itself
Assay: SEC; size exclusion chromatography of purified AgPPO8 against standard proteins; eluted at a similar retention volume as bovine γ-globulin

B1: Anopheles gambiae prophenoloxidase 8 (AgPPO8) (enzyme, UniProt Q8MZM3 1-700, looked up)
chain: MATLTQKFHGLLQHPLEPLFLPKNDGTLFYDLPERFLTSRYSPIGQNLANRFGPNSPASSQVSNDTGVPPTVVTIKDLDELPDLTFATWIKRRDSFSLFNPEHRKAAGKLTKLFLDQPNADRLVDVAAYARDRLNAPLFQYALSVALLHRPDTKSVSVPSLLHLFPDQFIDPAAQVRMMEEGSIVLDENRMPIPIPMNYTATDAEPEQRMAFFREDIGVNLHHWHWHLVYPASGPPDVVRKDRRGELFYYMHQQLLARYQIDRYAQGLGRIEPLANLREPVREAYYPKLLRTSNNRTFCPRYPGMTISDVARSADRLEVRIADIESWLPRVLEAIDAGFAVSDDGVRVPLDETRGIDVLGNILERSAISINRNLYGDVHNMGHVLLAFIHDPRGTYLESSGVMGGVATAMRDPIFYRWHKFIDNIFLRNKARLAPYTMAELSNSNVTLEALETQLDRAGGAVNSFVTFWQRSQVDLRAGIDFSAAGSAFVSFTHLQCAPFVYRLRINSTARSNRQDTVRIFLLPRQNEQGRPLSFEDRRLLAIELDSFRVNLRPGMNNIVRQSSNSSVTIPFERTFGNVEQANAGNAQSRFCGCGWPAHMLLPKGNANGVEFDLFAMVSRFEDDNANVNYDENAGCDDSYAFCGLRDRVYPSRRAMGFPFDRRASNGVRSVADFVAPYKNMRLATVTLRFMNTIIDRPTN
notes: Prophenoloxidase 8 (PPO8) of Anopheles gambiae, zymogen; cDNA amplified from a cDNA pool of second instar larvae; each subunit in the crystal comprises 700 residues (numbered 1-700; pro-region 17-81, domain I 1-16 and 82-196, domain II 197-435, domain III 436-697); Expressed as a SUMO fusion with an N-terminal 6xHis tag; also called A. gambiae PPO8; source: E. coli BL21 gold (DE3), purified …
  stoichiometry N: 2
